Assay results taken from patent US20050176124.

Molecular target: T1, EGF receptor autophosphorylation site peptide DADEpYL-NH2
T1 chain: DADEYL

B1: DSP-3-glutathione-S-transferase (GST) fusion protein (protein)
chain: MGNGMNKILPGLYIGNFKDARDAEQLSKNKVTHILSVHDSARPMLEGVKYLCIPAADSPSQNLTRHFKESIKFIHECRLRGESCLVHCLAGVSRSVTLVIAYIMTVTDFGWEDALHTVRAGRSCANPNVGFQRQLQEFEKHEVHQYRQWLKEEYGESPLQDAEEAKNILAAPGILKFWAFLRRL
  Km (phosphatase assay, release of 32P from substrate peptide): Km=1.2 µM
  specific activity (phosphatase assay, release of 32P from substrate peptide): 88.4 nmol/min/mg
